According to the nanobody polyreactivity screen of Harvey et al. (2022):

Assay: yeast display, Sf9 membrane polyspecificity reagent, FACS + sequencing; frameworks hold sequencing errors
How it was run: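 Synthetic nanobody libraries on Saccharomyces cerevisiae BJ5465 were galactose-induced for 36–48 hours, stained 1 hour at 4 °C with 10% biotinylated, detergent-solubilized Sf9 membrane reagent and enriched on streptavidin microbeads. FACS then separated cells into low and high (top ~1%) gates by anti-HA (expression) and streptavidin (reagent binding) fluorescence. Genes were colony-PCR amplified, MiSeq 2 × 250 sequenced and CDR-length filtered. A clone's polyreactivity label is that of its gate of origin.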

Sequence	polyreactivity (PSR sort gate)
QVQLVESGGGLVQAGGSLRLSCAASGFTSCDNDMGWYRQAPGKERELVAAISRGGSTNYADSVKGRFTISRDNAKNTVYLQMNSLKPEDTAVYYCATAAVTPVWYDYWGKGTQVTVSS	low polyreactivity
QVQLVESGGGLVQAGGSLRLSCAASGFTSRRYVMGWYRQAPGKERELVAAISSRGTSTYYADSVKGRFTISRDNAKNTVYLKMNSLKPEDTAVYYCAAVIRGRTRWLKYDYWGQGTQGTVSS	high polyreactivity
QVQLVESGGGLVQAGGSLRLSCAASGFTSSRNAMGWYRQAPGKERELVAAISSGTSTNYADSVKGRFTISRDNAKNTVYLQMNSLKPEDTAVYYCAAGSYSRYLYSLYFDFDYWGQGTQVTVSS	low polyreactivity
QVQLVESGGGLVQAGGSLRLSCAASGFTSSYYAMGWYRQAPGKERELVAAISSSGGSTYYADSVKGRFTISRDNAKNTVYLQMNSLKPEDTAVYYCAAARRERAGRQYDYWGQGTQVTVSS	low polyreactivity
QVQLVESGGGLVQAGGSLRLSCAASGFTSWHNDMGRYRQATGKERELVAAIDTGTGTYYADSVKGRFTISRDNAKNTVYLQLYSLKPEDTAVYYCAKDDLLVVRIVWFDYWGLGTQVTVSS	low polyreactivity
QVQLVESGGGLVQAGGSLRLSCAASGFTVGVYAMGWYRQAPGKERELVAAISSGGSTNYADSVKGRFTISRDNAKNTVYLQMNSLKPEDTAVYYCAADAVSGGQGTADYDYWGQGTQVTVSS	low polyreactivity
QVQLVESGGGLVQAGGSLRLSCAASGFTVGVYAMGWYRQAPGKERELVAAISSGGSTNYADSVKGRFTISRDNAKNTVYLQMNSLKPEDTAVYYCAKDVWYLVYYHWKSNRVWQYDYWGQGTQVTVSS	low polyreactivity
QVQLVESGGGLVQAGGSLRLSCAASGFTVGYYAMAWYRQAPGKERELVAAISYVGGTTYYADSVKGRFTISRDNAKKTVYLQMNSLKPEDTAVYYCATLYRGSVRYYYWGQGTQVTVSS	high polyreactivity
QVQLVESGGGLVQAGGSLRLSCAASGFTVWYYAMGWYRQAPGKVRELVASISSIGGSTYYADSVKGRFTISRENAKNTVYLQMNSLKPEDTAVYYCAARYKFLRGVVRRDYWGQGTQVTVSS	high polyreactivity
QVQLVESGGGLVQAGGSLRLSCAASGFTYGANTMGWYRQAPGKERELVADISVRGDRTSYADSVKGRFTISRDNAKNTVYLPMNSLKPEDTAVYYCATDIYQHAKRRYDYWGQGTQVTVSS	low polyreactivity
QVQLVESGGGLVQAGGSLRLSCAASGFTYGINAMGWYRQAPGKERELVASISSGSSTTYADSVKGRFTISRDNATNTVYLQMISLKPEDTAVYYCNARPFHIYWRYDYWGQGTQVTVSS	low polyreactivity
QVQLVESGGGLVQAGGSLRLSCAASGFTYGRYAMGWYRQAPGKERELVAVISWSGVSTYYADSVKGRFTISRDNAKNTVYLQMNSLKPEDTAVYYCNKRSYHYPYGYDYWGQGTQVTVSS	high polyreactivity
QVQLVESGGGLVQAGGSLRLSCAASGFTYLRYAMGWYRQAPGKERELVAAISFSGDTTNYADSVKGRFTISRDNAKNTVYLQMNSLKPEDTAVYYCAASYGGGYYSDRGYYYWGQGTQVTVSS	low polyreactivity
QVQLVESGGGLVQAGGSLRLSCAASGFTYLYAMGWYRQAPGKESELDAAISYSGGSTYYADSVKGRFTISRDNAKNTVYLQMNSMKPEDTAVYYCAAGYGTVRGVSYDYWGQGTQVTVSS	low polyreactivity
QVQLVESGGGLVQAGGSLRLSCAASGFTYPPYAMGWYRQAPGKERELVAAISSAGSTKYADSVKGRFTISRDNAKNTVYLQMNSLKPEDTAVYYCAARWARSYDYWGQGTQVTVSS	low polyreactivity
QVQLVESGGGLVQAGGSLRLSCAASGGIDYTNAMGWYRQAPGKERELVAAIRKNGDSTNYADSVKGRFTISRDNAKNTVYLQMNSLKPEDTAVYYCNAELWPWAYDYWGQGTQVTVSS	low polyreactivity

Sequence	polyreactivity (PSR sort gate)
QVQLVESGGGLVQAGGSLRLSCAASGGIFALNDMGWYRQAPGKERELVAAINGAGTYYADSVKGRFTISRDNAKNTVYLQMNSLKPEETAVYYCARRWLHWEYARTWTRVEYDYWGQGTQVTVSS	low polyreactivity
QVQLVESGGGLVQAGGSLRLSCAASGGIFARNVMGWYRQAPGKERELVAAISGSGGSTYYADSVKGRFTISRDNAKKTVYLQMNSLKPEDTAVYYCAARTPGVSVYKDGYWGQGTQVTVSS	low polyreactivity
QVQLVESGGGLVQAGGSLRLSCAASGGIFAVYAMGWYRQAPGKERELVAAITWRGGSTRYADSVKGRFTISRDNAKTTVYLQMNSLKPEDTAVYYCAVRSTGYPSRYYFWGQGTQVTVSS	high polyreactivity
QVQLVESGGGLVQAGGSLRLSCAASGGIFDFYAMGWYRPAPGKERELVAAITRSGSSTFYADSVKGRFTLSRDNAKNTVDLQMNSLKPEDTAIYYCAADYSHLPIAWYYYWGQGTQVTVSS	low polyreactivity
QVQLVESGGGLVQAGGSLRLSCAASGGIFDFYAMGWYRQAPGKERELVAAITRSGSSTFYADSVKGRFTISRDNAKNTVYLQMNSLKPEDTAVYYCATRPTSDFVKRRVYEWLDYWGQGTQVTVSS	low polyreactivity
QVQLVESGGGLVQAGGSLRLSCAASGGIFDRYAMGWYRQAPGKERELVAAITSGGSTNYADSVKGRFTISRDNAKNTVYLQMISLKPEDTAVYYCNADLGILSGVAEGPTFREYDYWGQGTQVTVSS	low polyreactivity
QVQLVESGGGLVQAGGSLRLSCAASGGIFDTYAMGWYRQAPGKERELVAAISSTGGSSYYADSVKGRFTISRDNAKNTVYLQMNSLKPEDTAVYYCNAVLARFWRYRRWEYDYWGQGTQVTVSS	high polyreactivity
QVQLVESGGGLVQAGGSLRLSCAASGGIFDVYAMGWYRQAPGKERELVAAITASGGSTYYADSVKGRFTISRDNAKNTVYLQMNSLKPEDTAVYYCNAYYYYLFHRYDYWGQGTQVTVSS	low polyreactivity
QVQLVESGGGLVQAGGSLRLSCAASGGIFERNDMGWYRQAPGKERELVAGISSVGSTNYADSVKGRFTISRDNAKNTVYLQMNSLKPEDTAVYYCAAPTKREFRYLRYDYWGQGTQVTVSS	low polyreactivity
QVQLVESGGGLVQAGGSLRLSCAASGGIFGGYAMGWYRQAPGKAGALVAVITSGGSTYYADSVKGRFTISRDNAKNTVYLQMNSLKPEDTAVYYCAADGHSYSYSTYDYWGQGTQVTVSS	low polyreactivity
QVQLVESGGGLVQAGGSLRLSCAASGGIFGPYAMGWYRQAPGKERELVATITRNGGSTRYADSVKGRFTISRDNAKNTVYLQMNSLKPEDTAVYYCAARGYLDMGYWGQGTQVTVSS	high polyreactivity
QVQLVESGGGLVQAGGSLRLSCAASGGIFGQYTMGWYRQAPGKERELVAGISKRGTLTRYADSVKGRFTISRDNAKNTVYLQMNSLKPEYSAVYYCNADYVGFFWEYDYWGQGTQVTVSS	high polyreactivity
QVQLVESGGGLVQAGGSLRLSCAASGGIFGSYAMAWYRQAPGKERELVAAISWTGGSTYYADSVKGRFTISRDNAKNTVYLQMNSLKPEDTAVYYCNADTYRRAQLRFNSWGQGTQVTVSS	low polyreactivity
QVQLVESGGGLVQAGGSLRLSCAASGGIFGYYVMGWYRQAAGNERELVAVITRGGSTNYADSVKGRFTISRDNAKNTVYLQMNSLKPEDTAVYYCAKDVPYRRVRSEYWGQGTQVTVSS	low polyreactivity
QVQLVESGGGLVQAGGSLRLSCAASGGIFIKYAIGWYRPAPGKERELVAAITYSGGSTYYADSVKGRFTISRDNAKNTVYLQMNCLKPEDTAVYYCAADTLRQYDYEYWGQGTQVTVSS	high polyreactivity
